Consider two molecules from paper PMC6201861, “Generation and characterization of novel recombinant anti-hERG1 scFv antibodies for cancer molecular imaging” (Oncotarget, 2018).

The target in experiment [1] is T1, hERG1 potassium channel expressed on hERG1-transfected HEK 293 cells (Homo sapiens (Human)., UniProt Q12809).
T1 construct: human ether-a-go-go-related gene-1 (hERG1, Kv 11.1) potassium channel; cell culture details are in the Supplementary Materials; also called HEK-hERG1; HEK 293 hERG1; source: HEK 293, transfected, on cells
T1 sequence (Q12809 whole entry): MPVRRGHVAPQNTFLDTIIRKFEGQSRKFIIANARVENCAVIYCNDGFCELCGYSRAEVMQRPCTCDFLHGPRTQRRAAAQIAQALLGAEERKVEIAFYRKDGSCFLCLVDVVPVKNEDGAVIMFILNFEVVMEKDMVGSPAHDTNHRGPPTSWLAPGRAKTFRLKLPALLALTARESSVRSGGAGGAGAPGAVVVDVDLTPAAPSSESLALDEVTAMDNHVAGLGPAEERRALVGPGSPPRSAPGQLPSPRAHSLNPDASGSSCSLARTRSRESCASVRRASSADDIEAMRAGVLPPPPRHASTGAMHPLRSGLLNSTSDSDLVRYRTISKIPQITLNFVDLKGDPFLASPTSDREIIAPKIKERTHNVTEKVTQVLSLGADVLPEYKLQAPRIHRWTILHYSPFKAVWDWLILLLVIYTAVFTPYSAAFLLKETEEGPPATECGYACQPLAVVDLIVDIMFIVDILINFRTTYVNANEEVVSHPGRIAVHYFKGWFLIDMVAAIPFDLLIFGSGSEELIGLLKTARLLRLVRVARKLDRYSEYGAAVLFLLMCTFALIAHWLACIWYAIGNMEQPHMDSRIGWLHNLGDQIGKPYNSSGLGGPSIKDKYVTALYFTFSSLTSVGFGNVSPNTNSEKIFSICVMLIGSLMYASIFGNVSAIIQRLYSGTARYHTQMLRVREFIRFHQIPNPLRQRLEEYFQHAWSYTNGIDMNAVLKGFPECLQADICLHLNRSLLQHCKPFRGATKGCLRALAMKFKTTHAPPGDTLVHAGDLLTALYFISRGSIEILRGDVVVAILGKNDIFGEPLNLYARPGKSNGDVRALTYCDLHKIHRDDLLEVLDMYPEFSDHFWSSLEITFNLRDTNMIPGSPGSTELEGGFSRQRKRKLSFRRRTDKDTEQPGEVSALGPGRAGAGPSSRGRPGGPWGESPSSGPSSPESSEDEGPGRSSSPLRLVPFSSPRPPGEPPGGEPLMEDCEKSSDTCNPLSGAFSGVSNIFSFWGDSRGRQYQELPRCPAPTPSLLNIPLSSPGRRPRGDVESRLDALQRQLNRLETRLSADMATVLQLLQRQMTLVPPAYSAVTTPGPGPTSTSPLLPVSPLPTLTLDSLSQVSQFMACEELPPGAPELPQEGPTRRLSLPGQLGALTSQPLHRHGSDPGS
Description: immunostaining of cells or tissue; indirect immunofluorescence on fixed HEK-hERG1 and HEK-Mock cells. The note with it: one partner purified.

Experiment [2] has as its target T2, S5-Pore peptide (Homo sapiens (Human).).
T2 construct: peptide of the extracellular S5-P loop of the human hERG1 (Kv 11.1) potassium channel; also called antigenic peptide; raising peptide
T2 chain: EQPHMDSRIGWLHN
Description: ELISA; S5-Pore peptide as coating antigen; 0.1 to 10 ug of scFv (Alexa488 conjugate at 1 ug); revealed with anti-6xHis antibody then anti-mouse IgG-HRP; OD450. Conditions: both partners purified. Background: An ELISA detects its analyte on a solid surface through an enzyme-linked reagent.

Experiment [3] deals with T2, S5-Pore peptide. Description: SPR; Biacore T100; S5-Pore peptide amine-coupled to a CM5 chip; scFv flowed at 2.5, 5, 10, 20, 40 ug/ml; contact 120 s, dissociation 600 s, 30 ul/min; 1:1 binding model for scFv-hERG1, two-state reaction model for scFv-hERG1-Cys. The note with it: both partners purified. For orientation: In SPR one partner is held on a chip, and binding of the other changes the refractive index at the surface.

Experiment [4] concerns the target T1, hERG1 potassium channel expressed on …. Nature of the experiment: immunostaining of cells or tissue; direct immunofluorescence with the Alexa 488 conjugate on fixed cells (HEK-hERG1, HEK-Mock; PANC-1 in 2D and as spheroids). The note with it: one partner purified.
For experiment [5], the target named is T3, hERG1 potassium channel endogenously expressed on cancer cell lines (Homo sapiens (Human)., UniProt Q12809).
T3 construct: human ether-a-go-go-related gene-1 (hERG1, Kv 11.1) potassium channel; also called hERG1 on PANC-1 cells; Kv 11.1; source: endogenous, on PANC-1 cells (2D and spheroids); in the viability tests also MDA-MB231, MIAPaCa-2, HCT-116
T3 sequence (Q12809 whole entry): as above
Described as above. The note with it: one partner purified.

One may read the Kd as the constant that tells how readily two partners part at equilibrium. A low value points to higher affinity.

B1: scFv-hERG1-Cys (scFv, V domains shown)
VH: EVQLQQSGPELVKPGASVKISCKTSGYTFTEYTVHWVKQSHGKSLEWIGGINPNGGTTYNQKFKGKATLTIDKSSSSAFMELRSLTSEDSAVYYCATGWGPDYWGQGTTLTVSS
VL: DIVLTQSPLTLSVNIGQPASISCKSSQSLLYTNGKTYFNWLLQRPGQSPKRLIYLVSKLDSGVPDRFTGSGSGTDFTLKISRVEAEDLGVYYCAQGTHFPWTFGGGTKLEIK
notes: numbers count on: Kabat scheme of the VH; as the linker of m1; as the VL of m1; also called mutagenized scFv-hERG1; scFv-Cys; source: P. pastoris GS115 (pPIC9K), purified from culture supernatant (HisTrap HP)
Take B1: in experiment [1], the binding result was “binds”. Also, the “fold binding against scFv-hERG1 (ELISA O.D.)” value in experiment [2] is approximately 2 fold. Also, the dissociation constant Kd in experiment [3] stood at 61.8 nM.

B2: scFv-hERG1-Cys-Alexa488 (scFv, V domains shown)
VH: EVQLQQSGPELVKPGASVKISCKTSGYTFTEYTVHWVKQSHGKSLEWIGGINPNGGTTYNQKFKGKATLTIDKSSSSAFMELRSLTSEDSAVYYCATGWGPDYWGQGTTLTVSS
VL: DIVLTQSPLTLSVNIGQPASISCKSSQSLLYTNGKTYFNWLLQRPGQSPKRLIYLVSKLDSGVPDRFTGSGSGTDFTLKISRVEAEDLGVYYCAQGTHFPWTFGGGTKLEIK
notes: numbers count on: Kabat scheme of the VH; as the linker of m1; as the VL of m1; Same protein as m2, with the fluorophore
In the case of B2, the binding result in experiment [4] and in experiment [5] was “binds” in each case.
